According to PMC12525004, “Bacillus subtilis DinG 3′⟶5′ Exo(ribo)nuclease: A Helpmate to Mitigate Replication Stress” (International Journal of Molecular Sciences, 2025):
Substitutions are numbered along the chain they refer to.

Key:
Conditions in all cases: protein: recombinant; tags: none stated (pET3a, untagged); label: 5'-32P; single strand
[1] = target: T1, DinG D10A E12A (Bacillus subtilis, UniProt P54394 1-931, D10A;E12A); assay: EMSA; 3 mM Mg2+; C1, C2 and well complexes; EMSA, buffer D (composition not in material; 3 mM MgCl2, or 2 mM EDTA instead), 0.5 nM DNA, 37 °C, 10 min (text: 5 min), 15% native PAGE in TBE 1X; pH and salt
T1 sequence: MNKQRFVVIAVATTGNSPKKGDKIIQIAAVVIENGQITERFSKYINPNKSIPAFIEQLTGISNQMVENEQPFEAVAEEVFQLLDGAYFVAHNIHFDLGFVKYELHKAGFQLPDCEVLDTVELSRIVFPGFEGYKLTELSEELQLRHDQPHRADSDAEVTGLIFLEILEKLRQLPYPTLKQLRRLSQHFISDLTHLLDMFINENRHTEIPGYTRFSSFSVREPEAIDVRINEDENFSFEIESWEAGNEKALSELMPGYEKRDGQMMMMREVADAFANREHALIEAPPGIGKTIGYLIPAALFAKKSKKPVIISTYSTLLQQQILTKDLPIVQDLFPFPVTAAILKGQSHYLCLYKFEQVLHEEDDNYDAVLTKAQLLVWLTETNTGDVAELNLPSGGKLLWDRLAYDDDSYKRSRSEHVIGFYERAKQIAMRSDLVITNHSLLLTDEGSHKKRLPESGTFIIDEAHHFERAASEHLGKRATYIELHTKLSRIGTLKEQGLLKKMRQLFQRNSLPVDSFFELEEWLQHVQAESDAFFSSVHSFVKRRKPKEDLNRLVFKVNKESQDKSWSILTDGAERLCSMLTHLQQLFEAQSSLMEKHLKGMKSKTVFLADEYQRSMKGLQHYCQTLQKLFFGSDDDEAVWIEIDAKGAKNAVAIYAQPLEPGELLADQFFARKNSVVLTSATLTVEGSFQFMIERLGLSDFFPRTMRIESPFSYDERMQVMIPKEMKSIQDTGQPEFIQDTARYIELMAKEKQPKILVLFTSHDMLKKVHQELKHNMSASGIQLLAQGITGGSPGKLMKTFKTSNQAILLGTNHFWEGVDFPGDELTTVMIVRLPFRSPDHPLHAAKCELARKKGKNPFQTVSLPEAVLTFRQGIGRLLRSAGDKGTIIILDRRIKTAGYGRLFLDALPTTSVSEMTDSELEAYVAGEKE

[2] = target: T2, DinG K290A (Bacillus subtilis, UniProt P54394 1-931, K290A); assay: EMSA; 2 mM EDTA, no metal; Kapp; text names lssDNA38, Methods and Fig S4 legend give lssDNA45; EMSA, buffer D (composition not in material; 3 mM MgCl2, or 2 mM EDTA instead), 0.5 nM DNA, 37 °C, 10 min (text: 5 min), 15% native PAGE in TBE 1X; pH and salt
T2 sequence: T1 sequence with A10D, A12E, K290A

[3] = target: T1, DinG D10A E12A; assay: EMSA; 2 mM EDTA, no metal; text names lssDNA38, Methods and Fig S4 legend give lssDNA45; EMSA, buffer D (composition not in material; 3 mM MgCl2, or 2 mM EDTA instead), 0.5 nM DNA, 37 °C, 10 min (text: 5 min), 15% native PAGE in TBE 1X; pH and salt

For GTACGTATTCAAGATACCTCGTACTCTGTACTGACTCGGATCCTA (ssDNA, biotin-T at position 44 (second from 3' end)) [3'-Biotin gamma32P-lssDNA45], the binding signal [1] was ~37 fold lower affinity than wt DinG, the “apparent K (half saturation)” value [2] was ~1.1 nM and the binding signal [3] was ~2 fold lower affinity than its Mg2+-bound state.
